From publication PMC2953525, “Subtle Alterations in PCNA-Partner Interactions Severely Impair DNA Replication and Repair” (PLoS Biology, 2010)

B1: pol30-Pol32E9 (protein)
chain: MLEAKFEEASLFKRIIDGFKDCVQLVNFQCKEDGIIAQAVDDSRVLLVSLEIGVEAFQEYRCDHPVTLGMDLTSLSKILRCGNNTDTLTLIADNTPDSIILLFEDTKKDRIAEYSLKLMDNDVDSLKIIELQYDSTLSLPSSEFSKIVRDLSQLSDSINIMITKETIKFVADGDIGSGSVIIKPFVDMEHPETSIKLEMDQPVDLTFGAKYLLDIIKGSSLSDRVGIRLSSEAPALFQFDLKSGFLQFFLAPKFNDEE
modifications: left off: Gal4 activation domain, end not stated, kept

Columns and labels:
Pol32 PIP peptide = assay: SPR analysis of PCNA binding to PIP peptide; design: species or system yeast; details: peptide 5-5,000 nM
From the text: (§1) To quantify differences in binding affinities of the PCNA mutants relative to the WT, we characterized four PCNA mutants with increased affinity for PIP peptides derived from Rad30, Pol32, Msh6, and Ung1 partners using SPR. These mutants were overexpressed in E. coli, purified by affinity chromatography, and immobilized on an SPR sensor chip for binding characterization. SPR binding analysis enabled direct and sensitive measurement of interaction affinities relative to the Y2H system and indicated an up to 8-fold increase in binding affinity for the different PIP peptides, relative to WT PCNA (Table 1). Such analysis allowed the detection of a significant decrease in the Rad30 PIP peptide dissociation rate in the Pol30-Rad30E9p mutant relative to the WT, indicating a ∼9-fold increase in the lifetime of the PCNA-Rad30 complex (see Table 1). Collectively the ELISA, Y2H, and SPR assays validated and quantified the increase in mutant PCNA binding affinities, relative to WT PCNA.
(§2) Protein interaction assays were carried out using the ProteOn XPR36 (Bio-Rad) instrument. WT or PCNA mutants (0.4 to 5.2 fmol) were immobilized on the surface of a GLM sensor chip by a carbodiimide-activated succinimide-coupling method, as specified by the manufacturer. All SPR experiments were performed by flowing 150 µl of the target peptide at a flow rate of 30 µl/min onto the PCNA-bound chip. Different concentrations (5–5,000 nM) of PIP peptides (Table 1) were injected over the PCNA chip, and binding parameters were determined using ProteOn XPR36 software (Bio-Rad). The ligand (PCNA) and analyte (peptide) buffers were PBST and 150 mM NaCl, 1 mM EDTA, 0.01% Tween-80, 30 mM Hepes, pH 7.5, respectively.

Rad30 PIP peptide = assay: SPR analysis of PCNA binding to PIP peptide; design: species or system yeast
From the text: as §1, §2

Apn2 = assay: Yeast two hybrid (Y2H) analysis of PCNA-partner interaction; format: binding; design: key: ++: major increase in growth; +: moderate increase in growth; similar growth as the WT PCNA-expressing cells; -: minor decrease in growth; --: moderate decrease in growth; ---: major decrease in growth; details: spotting onto selective agar plates; PCNA fused to AD, partner to BD
Experimental: (§3) Y2H analysis was performed using the Yeast Two Hybrid Phagemid vector kit (Stratagene), following the manufacturer's instructions. The pAD-PCNA-WT/mutant plasmids were used as bait while plasmids encoding 12 different PCNA partners (Table 1 and Table S1) were used as prey. The YRG2 host strain (Stratagene) was cotransformed with pAD-PCNA WT/mutant and pBD-partner plasmids in all possible combinations using the LiAC method. Single transformants were grown in liquid SC-Leu-Trp to O.D600 10, washed twice with DDW, and diluted to an initial OD600 of 0.3. A series of 10-fold serial dilutions was then spotted onto selective SC-Leu-Trp-His plates and incubated at 30°C for 3 d. For quantitative Y2H, the generation time of the indicated mutants and their respective partners were calculated from their growth curves in liquid SC-Leu-Trp-His media. Cells were grown overnight in SC-Leu-Trp, washed twice with ddH2O, and diluted by a factor of 1∶50 into 10 ml of pre-warmed SC-Leu-Trp-His. O.D600 measurements of the cultures were taken at the indicated time; the generation time (τ) was calculated from the growth curves according to the equation ODt = OD0×2^t/τ. The generation time calculated for each culture is an average of at least 3 independent experiments.
(§4) Table S1: Yeast two hybrid analysis of binding of selected PCNA mutants with seven additional partners not described in Table 1 of the main text. […]
(§5) pol30-Rad30E2 WT WT WT WT WT WT - pol30-Rad30E9 WT WT WT WT WT WT WT pol30-Rad27E6 WT WT WT WT + WT WT pol30-Rad27E31 WT WT WT WT + WT WT pol30-Rad27L1 WT -- WT WT -- WT WT pol30-Rad27L2 WT -- WT WT -- WT WT pol30-Pol32E5 WT WT WT WT WT WT WT pol30-Pol32E9 - WT WT WT WT WT WT pol30-Msh6E2 WT WT + WT WT WT WT pol30-Msh6E6 WT WT ++ WT WT WT WT pol30-Ung1E3 WT - WT WT WT WT WT pol30-79 --- --- --- - --- --- --- a PCNA mutants with enhanced affinities for the different target partners (see Table 1, text). b PCNA mutants were fused to the activating domain (AD), while the different partners were fused to the DNA-binding domain (BD). The growth of the resulting Y2H strains was compared to the growth of the WT PCNA-expressing strain following spotting onto selective agar plates (see Material and Methods). Growth rates on the agar plates were scored and tabulated as follows: ++ major increase in growth; + moderate increase in growth; WT-similar growth as the WT PCNA-expressing cells; - minor decrease in growth; -- moderate decrease in growth; --- major decrease in growth. ND-Not determined.

Cac1 = assay: as above; format: binding; design: key: ++: major increase in growth; +: moderate increase in growth; similar growth as the WT PCNA-expressing cells; -: minor decrease in growth; --: moderate decrease in growth; ---: major decrease in growth; details: spotting onto selective agar plates; PCNA fused to AD, partner to BD
Experimental: as §3, §4, §5

Cdc9 = assay: as above; format: binding; design: key: ++: major increase in growth; +: moderate increase in growth; similar growth as the WT PCNA-expressing cells; -: minor decrease in growth; --: moderate decrease in growth; ---: major decrease in growth; details: spotting onto selective agar plates; PCNA fused to AD, partner to BD
Experimental: as §3, §4, §5

Eco1 = assay: as above; format: binding; design: key: ++: major increase in growth; +: moderate increase in growth; similar growth as the WT PCNA-expressing cells; -: minor decrease in growth; --: moderate decrease in growth; ---: major decrease in growth; details: spotting onto selective agar plates; PCNA fused to AD, partner to BD
Experimental: as §3, §4, §5

Msh3 = assay: as above; format: binding; design: key: ++: major increase in growth; +: moderate increase in growth; similar growth as the WT PCNA-expressing cells; -: minor decrease in growth; --: moderate decrease in growth; ---: major decrease in growth; details: spotting onto selective agar plates; PCNA fused to AD, partner to BD
Experimental: as §3, §4, §5

Rfc1 = assay: as above; format: binding; design: key: ++: major increase in growth; +: moderate increase in growth; similar growth as the WT PCNA-expressing cells; -: minor decrease in growth; --: moderate decrease in growth; ---: major decrease in growth; details: spotting onto selective agar plates; PCNA fused to AD, partner to BD
Experimental: as §3, §4, §5

Rrm3 = assay: as above; format: binding; design: key: ++: major increase in growth; +: moderate increase in growth; similar growth as the WT PCNA-expressing cells; -: minor decrease in growth; --: moderate decrease in growth; ---: major decrease in growth; details: spotting onto selective agar plates; PCNA fused to AD, partner to BD
Experimental: as §3, §4, §5

Molecule | Kd (Pol32 PIP peptide; PCNA immobilized, ProteOn XPR36, read-out: Binding affinity for Pol32 PIP peptide (SPR)) | Kd (Rad30 PIP peptide; PCNA immobilized, peptide 5-5,000 nM, ProteOn XPR36, read-out: Binding affinity for Rad30 PIP peptide (SPR)) | off-rate (kd) of the Rad30 PIP peptide (Rad30 PIP peptide; SPR) | Y2H growth relative to WT PCNA-expressing strain: Apn2 (Apn2) | Y2H growth relative to WT PCNA-expressing strain: Cac1 (Cac1) | Y2H growth relative to WT PCNA-expressing strain: Cdc9 (Cdc9) | Y2H growth relative to WT PCNA-expressing strain: Eco1 (Eco1) | Y2H growth relative to WT PCNA-expressing strain: Msh3 (Msh3) | Y2H growth relative to WT PCNA-expressing strain: Rfc1 (Rfc1) | Y2H growth relative to WT PCNA-expressing strain: Rrm3 (Rrm3) | Fold increase in binding affinity for Pol32 PIP peptide relative to WT PCNA (SPR) (Pol32 PIP peptide; footnote d, PCNA immobilized on GLM chip)
POL30: wild-type yeast PCNA (POL30), IDCL sequence DIDADFLKIEEL | 360 nM | 170 nM | 0.03 s⁻¹ |  |  |  |  |  |  |  | 
B1 |  |  |  | WT | WT | - | WT | WT | WT | WT | 2 fold
